Laboratory results as given in publication PMC12014907.

Target: STAT3^136-705, P40763
Test: thermal shift assay
Conditions: chain shown with the change; 25 μM phosphopeptides; parent: est. 54; read off a plot

STAT3^136-705, P40763, sequence (P40763 136-705): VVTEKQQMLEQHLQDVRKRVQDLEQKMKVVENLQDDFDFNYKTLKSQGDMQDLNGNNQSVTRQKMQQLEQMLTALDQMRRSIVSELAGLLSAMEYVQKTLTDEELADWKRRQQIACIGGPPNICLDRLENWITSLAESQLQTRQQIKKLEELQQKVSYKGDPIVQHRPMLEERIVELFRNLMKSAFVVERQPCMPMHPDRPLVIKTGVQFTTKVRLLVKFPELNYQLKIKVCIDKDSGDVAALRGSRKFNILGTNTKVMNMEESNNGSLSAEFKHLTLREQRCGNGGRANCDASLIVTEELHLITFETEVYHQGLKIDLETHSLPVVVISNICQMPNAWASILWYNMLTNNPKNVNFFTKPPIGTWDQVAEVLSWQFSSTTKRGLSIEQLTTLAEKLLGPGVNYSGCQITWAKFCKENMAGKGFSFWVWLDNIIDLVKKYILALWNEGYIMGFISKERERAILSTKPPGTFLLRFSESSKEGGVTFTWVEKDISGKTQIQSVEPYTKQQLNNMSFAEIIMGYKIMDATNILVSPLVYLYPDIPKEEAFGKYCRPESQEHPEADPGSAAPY

Binder: SGYIHQVPSV [gp130 phosphopeptide R168I]
- other: Tm of STAT3 with bound peptide (thermal shift): 55 °C
